# From patent publication US20210388087A1 (Chugai, published 2021)
# Target: T1, CD3 epsilon homodimer protein (UniProt P07766 23-126)
# T1 construct: also called CD3 (CD3 epsilon)
# Assay: SPR Biacore T200, CD3e homodimer on chip, vs unaltered GLS3000 antibody
# T1 sequence (P07766 23-126): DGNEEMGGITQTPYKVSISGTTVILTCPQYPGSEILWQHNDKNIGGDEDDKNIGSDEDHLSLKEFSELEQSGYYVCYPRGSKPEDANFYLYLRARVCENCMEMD
row,ratio of amounts bound (Z=Y/X),Binder
1,0.99,"GLS3000 S56I (antibody, name in Kabat numbering, V domains shown, one-arm IgG as m2) VH: QVQLVESGGGVVQPGRSLRLSCAASGFTFSNAWMHWVRQAPGKGLEWVAQIKAKSNNYATYYAESVKGRFTISRDDSKNSLYLQMNSLKTEDTAVYYCRYVHYGAYYGVDAWGQGTTVTVSS VL: DIVMTQSPLSLPVTPGEPASISCRSSQSLVHSNRNTYLHWYQQKPGQAPRLLIYKVSNRFIGVPDRFSGSGSGTDFTLKISRVEAEDVGVYYCGQGTQVPYTFGQGTKLEIK"
2,0.95,"GLS3000 S56V (antibody, name in Kabat numbering, V domains shown, one-arm IgG as m2) VH: QVQLVESGGGVVQPGRSLRLSCAASGFTFSNAWMHWVRQAPGKGLEWVAQIKAKSNNYATYYAESVKGRFTISRDDSKNSLYLQMNSLKTEDTAVYYCRYVHYGAYYGVDAWGQGTTVTVSS VL: DIVMTQSPLSLPVTPGEPASISCRSSQSLVHSNRNTYLHWYQQKPGQAPRLLIYKVSNRFVGVPDRFSGSGSGTDFTLKISRVEAEDVGVYYCGQGTQVPYTFGQGTKLEIK"
3,1.36,"GLS3000 S56R (antibody, name in Kabat numbering, V domains shown, one-arm IgG as m2) VH: QVQLVESGGGVVQPGRSLRLSCAASGFTFSNAWMHWVRQAPGKGLEWVAQIKAKSNNYATYYAESVKGRFTISRDDSKNSLYLQMNSLKTEDTAVYYCRYVHYGAYYGVDAWGQGTTVTVSS VL: DIVMTQSPLSLPVTPGEPASISCRSSQSLVHSNRNTYLHWYQQKPGQAPRLLIYKVSNRFRGVPDRFSGSGSGTDFTLKISRVEAEDVGVYYCGQGTQVPYTFGQGTKLEIK"
4,1.46,"GLS3000 S56Y (antibody, name in Kabat numbering, V domains shown, one-arm IgG as m2) VH: QVQLVESGGGVVQPGRSLRLSCAASGFTFSNAWMHWVRQAPGKGLEWVAQIKAKSNNYATYYAESVKGRFTISRDDSKNSLYLQMNSLKTEDTAVYYCRYVHYGAYYGVDAWGQGTTVTVSS VL: DIVMTQSPLSLPVTPGEPASISCRSSQSLVHSNRNTYLHWYQQKPGQAPRLLIYKVSNRFYGVPDRFSGSGSGTDFTLKISRVEAEDVGVYYCGQGTQVPYTFGQGTKLEIK"
5,1.04,"GLS3000 S56Q (antibody, name in Kabat numbering, V domains shown, one-arm IgG as m2) VH: QVQLVESGGGVVQPGRSLRLSCAASGFTFSNAWMHWVRQAPGKGLEWVAQIKAKSNNYATYYAESVKGRFTISRDDSKNSLYLQMNSLKTEDTAVYYCRYVHYGAYYGVDAWGQGTTVTVSS VL: DIVMTQSPLSLPVTPGEPASISCRSSQSLVHSNRNTYLHWYQQKPGQAPRLLIYKVSNRFQGVPDRFSGSGSGTDFTLKISRVEAEDVGVYYCGQGTQVPYTFGQGTKLEIK"
6,1.05,"GLS3000 S56M (antibody, name in Kabat numbering, V domains shown, one-arm IgG as m2) VH: QVQLVESGGGVVQPGRSLRLSCAASGFTFSNAWMHWVRQAPGKGLEWVAQIKAKSNNYATYYAESVKGRFTISRDDSKNSLYLQMNSLKTEDTAVYYCRYVHYGAYYGVDAWGQGTTVTVSS VL: DIVMTQSPLSLPVTPGEPASISCRSSQSLVHSNRNTYLHWYQQKPGQAPRLLIYKVSNRFMGVPDRFSGSGSGTDFTLKISRVEAEDVGVYYCGQGTQVPYTFGQGTKLEIK"
7,0.97,"GLS3000 S56T (antibody, name in Kabat numbering, V domains shown, one-arm IgG as m2) VH: QVQLVESGGGVVQPGRSLRLSCAASGFTFSNAWMHWVRQAPGKGLEWVAQIKAKSNNYATYYAESVKGRFTISRDDSKNSLYLQMNSLKTEDTAVYYCRYVHYGAYYGVDAWGQGTTVTVSS VL: DIVMTQSPLSLPVTPGEPASISCRSSQSLVHSNRNTYLHWYQQKPGQAPRLLIYKVSNRFTGVPDRFSGSGSGTDFTLKISRVEAEDVGVYYCGQGTQVPYTFGQGTKLEIK"
8,0.49,"GLS3000 T31E (antibody, name in Kabat numbering, V domains shown, one-arm IgG as m2) VH: QVQLVESGGGVVQPGRSLRLSCAASGFTFSNAWMHWVRQAPGKGLEWVAQIKAKSNNYATYYAESVKGRFTISRDDSKNSLYLQMNSLKTEDTAVYYCRYVHYGAYYGVDAWGQGTTVTVSS VL: DIVMTQSPLSLPVTPGEPASISCRSSQSLVHSNRNEYLHWYQQKPGQAPRLLIYKVSNRFSGVPDRFSGSGSGTDFTLKISRVEAEDVGVYYCGQGTQVPYTFGQGTKLEIK"
9,0.92,"GLS3000 S56N (antibody, name in Kabat numbering, V domains shown, one-arm IgG as m2) VH: QVQLVESGGGVVQPGRSLRLSCAASGFTFSNAWMHWVRQAPGKGLEWVAQIKAKSNNYATYYAESVKGRFTISRDDSKNSLYLQMNSLKTEDTAVYYCRYVHYGAYYGVDAWGQGTTVTVSS VL: DIVMTQSPLSLPVTPGEPASISCRSSQSLVHSNRNTYLHWYQQKPGQAPRLLIYKVSNRFNGVPDRFSGSGSGTDFTLKISRVEAEDVGVYYCGQGTQVPYTFGQGTKLEIK"
10,0.23,"GLS3000 T31D (antibody, name in Kabat numbering, V domains shown, one-arm IgG as m2) VH: QVQLVESGGGVVQPGRSLRLSCAASGFTFSNAWMHWVRQAPGKGLEWVAQIKAKSNNYATYYAESVKGRFTISRDDSKNSLYLQMNSLKTEDTAVYYCRYVHYGAYYGVDAWGQGTTVTVSS VL: DIVMTQSPLSLPVTPGEPASISCRSSQSLVHSNRNDYLHWYQQKPGQAPRLLIYKVSNRFSGVPDRFSGSGSGTDFTLKISRVEAEDVGVYYCGQGTQVPYTFGQGTKLEIK"
11,0.32,"GLS3000 T31N (antibody, name in Kabat numbering, V domains shown, one-arm IgG as m2) VH: QVQLVESGGGVVQPGRSLRLSCAASGFTFSNAWMHWVRQAPGKGLEWVAQIKAKSNNYATYYAESVKGRFTISRDDSKNSLYLQMNSLKTEDTAVYYCRYVHYGAYYGVDAWGQGTTVTVSS VL: DIVMTQSPLSLPVTPGEPASISCRSSQSLVHSNRNNYLHWYQQKPGQAPRLLIYKVSNRFSGVPDRFSGSGSGTDFTLKISRVEAEDVGVYYCGQGTQVPYTFGQGTKLEIK"
12,0.95,"GLS3000 S56P (antibody, name in Kabat numbering, V domains shown, one-arm IgG as m2) VH: QVQLVESGGGVVQPGRSLRLSCAASGFTFSNAWMHWVRQAPGKGLEWVAQIKAKSNNYATYYAESVKGRFTISRDDSKNSLYLQMNSLKTEDTAVYYCRYVHYGAYYGVDAWGQGTTVTVSS VL: DIVMTQSPLSLPVTPGEPASISCRSSQSLVHSNRNTYLHWYQQKPGQAPRLLIYKVSNRFPGVPDRFSGSGSGTDFTLKISRVEAEDVGVYYCGQGTQVPYTFGQGTKLEIK"
13,1.04,"GLS3000 T31K (antibody, name in Kabat numbering, V domains shown, one-arm IgG as m2) VH: QVQLVESGGGVVQPGRSLRLSCAASGFTFSNAWMHWVRQAPGKGLEWVAQIKAKSNNYATYYAESVKGRFTISRDDSKNSLYLQMNSLKTEDTAVYYCRYVHYGAYYGVDAWGQGTTVTVSS VL: DIVMTQSPLSLPVTPGEPASISCRSSQSLVHSNRNKYLHWYQQKPGQAPRLLIYKVSNRFSGVPDRFSGSGSGTDFTLKISRVEAEDVGVYYCGQGTQVPYTFGQGTKLEIK"
14,1.38,"GLS3000 S56W (antibody, name in Kabat numbering, V domains shown, one-arm IgG as m2) VH: QVQLVESGGGVVQPGRSLRLSCAASGFTFSNAWMHWVRQAPGKGLEWVAQIKAKSNNYATYYAESVKGRFTISRDDSKNSLYLQMNSLKTEDTAVYYCRYVHYGAYYGVDAWGQGTTVTVSS VL: DIVMTQSPLSLPVTPGEPASISCRSSQSLVHSNRNTYLHWYQQKPGQAPRLLIYKVSNRFWGVPDRFSGSGSGTDFTLKISRVEAEDVGVYYCGQGTQVPYTFGQGTKLEIK"
15,0.18,"GLS3000 T92D (antibody, name in Kabat numbering, V domains shown, one-arm IgG as m2) VH: QVQLVESGGGVVQPGRSLRLSCAASGFTFSNAWMHWVRQAPGKGLEWVAQIKAKSNNYATYYAESVKGRFTISRDDSKNSLYLQMNSLKTEDTAVYYCRYVHYGAYYGVDAWGQGTTVTVSS VL: DIVMTQSPLSLPVTPGEPASISCRSSQSLVHSNRNTYLHWYQQKPGQAPRLLIYKVSNRFSGVPDRFSGSGSGTDFTLKISRVEAEDVGVYYCGQGDQVPYTFGQGTKLEIK"
16,1.46,"GLS3000 S56K (antibody, name in Kabat numbering, V domains shown, one-arm IgG as m2) VH: QVQLVESGGGVVQPGRSLRLSCAASGFTFSNAWMHWVRQAPGKGLEWVAQIKAKSNNYATYYAESVKGRFTISRDDSKNSLYLQMNSLKTEDTAVYYCRYVHYGAYYGVDAWGQGTTVTVSS VL: DIVMTQSPLSLPVTPGEPASISCRSSQSLVHSNRNTYLHWYQQKPGQAPRLLIYKVSNRFKGVPDRFSGSGSGTDFTLKISRVEAEDVGVYYCGQGTQVPYTFGQGTKLEIK"
17,0.17,"GLS3000 T92E (antibody, name in Kabat numbering, V domains shown, one-arm IgG as m2) VH: QVQLVESGGGVVQPGRSLRLSCAASGFTFSNAWMHWVRQAPGKGLEWVAQIKAKSNNYATYYAESVKGRFTISRDDSKNSLYLQMNSLKTEDTAVYYCRYVHYGAYYGVDAWGQGTTVTVSS VL: DIVMTQSPLSLPVTPGEPASISCRSSQSLVHSNRNTYLHWYQQKPGQAPRLLIYKVSNRFSGVPDRFSGSGSGTDFTLKISRVEAEDVGVYYCGQGEQVPYTFGQGTKLEIK"
18,0.97,"GLS3000 T31I (antibody, name in Kabat numbering, V domains shown, one-arm IgG as m2) VH: QVQLVESGGGVVQPGRSLRLSCAASGFTFSNAWMHWVRQAPGKGLEWVAQIKAKSNNYATYYAESVKGRFTISRDDSKNSLYLQMNSLKTEDTAVYYCRYVHYGAYYGVDAWGQGTTVTVSS VL: DIVMTQSPLSLPVTPGEPASISCRSSQSLVHSNRNIYLHWYQQKPGQAPRLLIYKVSNRFSGVPDRFSGSGSGTDFTLKISRVEAEDVGVYYCGQGTQVPYTFGQGTKLEIK"
19,1.02,"GLS3000 S56L (antibody, name in Kabat numbering, V domains shown, one-arm IgG as m2) VH: QVQLVESGGGVVQPGRSLRLSCAASGFTFSNAWMHWVRQAPGKGLEWVAQIKAKSNNYATYYAESVKGRFTISRDDSKNSLYLQMNSLKTEDTAVYYCRYVHYGAYYGVDAWGQGTTVTVSS VL: DIVMTQSPLSLPVTPGEPASISCRSSQSLVHSNRNTYLHWYQQKPGQAPRLLIYKVSNRFLGVPDRFSGSGSGTDFTLKISRVEAEDVGVYYCGQGTQVPYTFGQGTKLEIK"
20,0.63,"GLS3000 T92A (antibody, name in Kabat numbering, V domains shown, one-arm IgG as m2) VH: QVQLVESGGGVVQPGRSLRLSCAASGFTFSNAWMHWVRQAPGKGLEWVAQIKAKSNNYATYYAESVKGRFTISRDDSKNSLYLQMNSLKTEDTAVYYCRYVHYGAYYGVDAWGQGTTVTVSS VL: DIVMTQSPLSLPVTPGEPASISCRSSQSLVHSNRNTYLHWYQQKPGQAPRLLIYKVSNRFSGVPDRFSGSGSGTDFTLKISRVEAEDVGVYYCGQGAQVPYTFGQGTKLEIK"
21,0.31,"GLS3000 T31P (antibody, name in Kabat numbering, V domains shown, one-arm IgG as m2) VH: QVQLVESGGGVVQPGRSLRLSCAASGFTFSNAWMHWVRQAPGKGLEWVAQIKAKSNNYATYYAESVKGRFTISRDDSKNSLYLQMNSLKTEDTAVYYCRYVHYGAYYGVDAWGQGTTVTVSS VL: DIVMTQSPLSLPVTPGEPASISCRSSQSLVHSNRNPYLHWYQQKPGQAPRLLIYKVSNRFSGVPDRFSGSGSGTDFTLKISRVEAEDVGVYYCGQGTQVPYTFGQGTKLEIK"
